For assay [1], the target named is human fibroblast activation protein (FAP) on FAP-expressing human WI-38 fibroblasts (human). As to the kind of experiment: competition FACS, WI-38 cells, vs Cy5-labeled compound; A: pIC50 >8.0. The settings on record: remark: other sources report otherwise.
Assay [2] has as its target T1, Recombinant human FAP (R&D systems, #3715-SE) (human).
T1 sequence: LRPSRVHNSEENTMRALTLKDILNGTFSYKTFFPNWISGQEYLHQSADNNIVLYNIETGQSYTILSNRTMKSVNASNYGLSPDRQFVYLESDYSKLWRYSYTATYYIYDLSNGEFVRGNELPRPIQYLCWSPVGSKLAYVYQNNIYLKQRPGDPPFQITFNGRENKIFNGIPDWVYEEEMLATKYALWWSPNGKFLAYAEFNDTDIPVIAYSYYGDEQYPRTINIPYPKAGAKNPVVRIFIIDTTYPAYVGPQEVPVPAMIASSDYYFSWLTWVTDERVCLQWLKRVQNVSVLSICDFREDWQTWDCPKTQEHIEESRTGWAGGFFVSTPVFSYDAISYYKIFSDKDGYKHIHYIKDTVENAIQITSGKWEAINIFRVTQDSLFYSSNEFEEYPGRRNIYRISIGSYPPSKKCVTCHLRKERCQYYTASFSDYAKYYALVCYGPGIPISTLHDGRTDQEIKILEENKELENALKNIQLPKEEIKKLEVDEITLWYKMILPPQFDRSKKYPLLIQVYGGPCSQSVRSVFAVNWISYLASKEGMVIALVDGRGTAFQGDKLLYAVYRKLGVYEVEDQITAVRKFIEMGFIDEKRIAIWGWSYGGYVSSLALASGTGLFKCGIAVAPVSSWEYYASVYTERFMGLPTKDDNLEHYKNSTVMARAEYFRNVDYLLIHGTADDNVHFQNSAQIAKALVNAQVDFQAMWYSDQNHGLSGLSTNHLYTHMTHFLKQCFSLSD

Numbered stars: 1 amine (or outer) side, 2 acyl side, 3 side chain; on linkers, the order of the positions; unused ones are H or OH. Bridge positions count the residues as written; N and C are the ends. Ends that are not written are not given here. * marks the point of attachment. Ttds = 1,13-diamino-4,7,10-trioxatridecan-succinamic acid, NCCCOCCOCCOCCCNC(=O)CCC(=O)*; tMeBn(DOTA-AET) = Cys-Cys bridge (thioethers) carrying DOTA-AET; tMeBn(DOTA-PP) = Cys-Cys bridge (thioethers) carrying DOTA-PP; DOTA = O=C(O)CN1CCN(CC(=O)O)CCN(CC(=O)*)CCN(CC(=O)O)CC1; mXylylene = c1cc(C[*:1])cc(C[*:2])c1; tMeBn(LuDOTA-AET) = not defined here; 2Lut = Cys-Cys bridge (thioethers); 3Lut = Cys-Cys bridge (thioethers); Pentanesulfonyl = CCCCCS(=O)(=O)*; PentylNH‑urea = CCCCCNC(=O)*; Hexanoyl = CCCCCC(=O)*

In assay [1], Hexanoyl-CPPTQFC-OH (linker 1-7 via tMeBn(InDOTA-AET); also: In-DOTA complex) [Hex-[Cys(tMeBn(InDOTA-AET))-Pro-Pro-Thr-Gln-Phe-Cys]-OH] displayed a pIC50 Category (FACS) of more than 8 pIC50.

B1: Hex-[Cys(3MeBn)-Pro-Pro-Thr-Gln-Phe-Cys]-Asp-NH2 (peptide)
peptide: Hexanoyl-CPPTQFCD-NH2
modifications: linker 1-7 via mXylylene
SMILES: CCCCCC(=O)N[C@H]1CSCc2cccc(c2)CSC[C@@H](C(=O)N[C@@H](CC(=O)O)C(N)=O)NC(=O)[C@H](Cc2ccccc2)NC(=O)[C@H](CCC(N)=O)NC(=O)[C@H]([C@@H](C)O)NC(=O)[C@@H]2CCCN2C(=O)[C@@H]2CCCN2C1=O
As for B1, the pIC50 Category (Activity) in assay [2] is more than 8 pIC50. In assay [1], Pentanesulfonyl-CPPTQFC-OH (linker 1-7 via tMeBn(DOTA-AET)) [Pentyl-SO2-[Cys(tMeBn(DOTA-AET))-Pro-Pro-Thr-Gln-Phe-Cys]-OH] showed a pIC50 Category (FACS) of more than 8 pIC50. Consider Hexanoyl-CPPTQFCD-NH2 (linker 1-7 via tMeBn(LuDOTA-PP); also: Lu-DOTA complex) [Hex-[Cys(tMeBn(LuDOTA-PP))-Pro-Pro-Thr-Gln-Phe-Cys]-Asp-NH2], for which the pIC50 Category (Activity) in assay [2] is more than 8 pIC50. Molecule Hexanoyl-CPPTQFC-NH2 (linker 1-7 via tMeBn(InDOTA-AET); also: In-DOTA complex) [Hex-[Cys(tMeBn(InDOTA-AET))-Pro-Pro-Thr-Gln-Phe-Cys]-NH2] came in with a pIC50 Category (FACS) in assay [1] of more than 8 pIC50. On to Hexanoyl-CPPTQFCD-NH2 (linker 1-7 via 2Lut) [Hex-[Cys(2Lut)-Pro-Pro-Thr-Gln-Phe-Cys]-Asp-NH2], for which the pIC50 Category (Activity) in assay [2] was more than 8 pIC50.

B2: Ac-[Cys(3MeBn)-Pro-Pro-Thr-Glu-Phe-Cys]-Asp-His-Phe-Arg-Asp-NH2 (peptide)
peptide: Ac-CPPTEFCDHFRD-NH2
modifications: linker 1-7 via mXylylene
SMILES: CC(=O)N[C@H]1CSCc2cccc(c2)CSC[C@@H](C(=O)N[C@@H](CC(=O)O)C(=O)N[C@@H](Cc2c[nH]cn2)C(=O)N[C@@H](Cc2ccccc2)C(=O)N[C@@H](CCCNC(=N)N)C(=O)N[C@@H](CC(=O)O)C(N)=O)NC(=O)[C@H](Cc2ccccc2)NC(=O)[C@H](CCC(=O)O)NC(=O)[C@H]([C@@H](C)O)NC(=O)[C@@H]2CCCN2C(=O)[C@@H]2CCCN2C1=O
For B2, the pIC50 Category (Activity) in assay [2] is more than 8 pIC50. As for Hexanoyl-CPPTQFCD-NH2 (linker 1-7 via 3Lut) [Hex-[Cys(3Lut)-Pro-Pro-Thr-Gln-Phe-Cys]-Asp-NH2], in assay [2], the pIC50 Category (Activity) was more than 8 pIC50. In turn, Hexanoyl-CPPTQFC-OH (linker 1-7 via tMeBn(EuDOTA-AET); also: Eu-DOTA complex) [Hex-[Cys(tMeBn(EuDOTA-AET))-Pro-Pro-Thr-Gln-Phe-Cys]-OH] had a pIC50 Category (FACS) in assay [1] of more than 8 pIC50.

Turning to Hexanoyl-CPPTQFCD-NH2 (linker 1-7 via tMeBn(EuDOTA-PP); also: Eu-DOTA complex) [Hex-[Cys(tMeBn(EuDOTA-PP))-Pro-Pro-Thr-Gln-Phe-Cys]-Asp-NH2], the pIC50 Category (Activity) in assay [2] is more than 8 pIC50. Turning to Hexanoyl-CPPTQFCD-NH2 (linker 1-7 via tMeBn(DOTA-AET)) [Hex-[Cys(tMeBn(DOTA-AET))-Pro-Pro-Thr-Gln-Phe-Cys]-Asp-NH2], the pIC50 Category (Activity) in assay [2] was more than 8 pIC50.

B3: Pentyl-SO2-[Cys(3MeBn)-Pro-Pro-Thr-Gln-Phe-Cys]-Asp-NH2 (peptide)
peptide: Pentanesulfonyl-CPPTQFCD-NH2
modifications: linker 1-7 via mXylylene
SMILES: CCCCCS(=O)(=O)N[C@H]1CSCc2cccc(c2)CSC[C@@H](C(=O)N[C@@H](CC(=O)O)C(N)=O)NC(=O)[C@H](Cc2ccccc2)NC(=O)[C@H](CCC(N)=O)NC(=O)[C@H]([C@@H](C)O)NC(=O)[C@@H]2CCCN2C(=O)[C@@H]2CCCN2C1=O
With B3, the pIC50 Category (Activity) in assay [2] is more than 8 pIC50. Take Hexanoyl-CPPTQFCD-NH2 (linker 1-7 via tMeBn(GaDOTA-PP)) [Hex-[Cys(tMeBn(GaDOTA-PP))-Pro-Pro-Thr-Gln-Phe-Cys]-Asp-NH2]: the pIC50 Category (Activity) in assay [2] was more than 8 pIC50.

In the case of Hexanoyl-CPPTQFCD-NH2 (linker 1-7 via tMeBn(InDOTA-PP); also: In-DOTA complex) [Hex-[Cys(tMeBn(InDOTA-PP))-Pro-Pro-Thr-Gln-Phe-Cys]-Asp-NH2], in assay [2], the pIC50 Category (Activity) was more than 8 pIC50. With Hexanoyl-CPPTQFCS-OH (linker 1-7 via tMeBn(DOTA-AET)) [Hex-[Cys(tMeBn(DOTA-AET))-Pro-Pro-Thr-Gln-Phe-Cys]-Ser-OH], the pIC50 Category (Activity) in assay [2] is more than 8 pIC50. For the molecule Hexanoyl-CPPTQFC-OH (linker 1-7 via tMeBn(DOTA-AET)) [Hex-[Cys(tMeBn(DOTA-AET))-Pro-Pro-Thr-Gln-Phe-Cys]-OH], the pIC50 Category (FACS) in assay [1] was more than 8 pIC50.

B4: Hex-[Cys(3MeBn)-Pro-Pro-Thr-Glu-Phe-Cys]-Asp-His-Phe-Arg-Asp-NH2 (peptide)
peptide: Hexanoyl-CPPTEFCDHFRD-NH2
modifications: linker 1-7 via mXylylene
SMILES: CCCCCC(=O)N[C@H]1CSCc2cccc(c2)CSC[C@@H](C(=O)N[C@@H](CC(=O)O)C(=O)N[C@@H](Cc2c[nH]cn2)C(=O)N[C@@H](Cc2ccccc2)C(=O)N[C@@H](CCCNC(=N)N)C(=O)N[C@@H](CC(=O)O)C(N)=O)NC(=O)[C@H](Cc2ccccc2)NC(=O)[C@H](CCC(=O)O)NC(=O)[C@H]([C@@H](C)O)NC(=O)[C@@H]2CCCN2C(=O)[C@@H]2CCCN2C1=O
As to B4, the pIC50 Category (Activity) in assay [2] was more than 8 pIC50.

For {DOTA-Ttds}-LCPPTEFCDHFRD-NH2 (linker 2-8 via mXylylene) [DOTA-Ttds-Leu-[Cys(3MeBn)-Pro-Pro-Thr-Glu-Phe-Cys]-Asp-His-Phe-Arg-Asp-NH2], in assay [2], the pIC50 Category (Activity) was more than 8 pIC50. Regarding Hexanoyl-CPPTEFC-NH2 (linker 1-7 via tMeBn(DOTA-AET)) [Hex-[Cys(tMeBn(DOTA-AET))-Pro-Pro-Thr-Glu-Phe-Cys]-NH2], the pIC50 Category (Activity) in assay [2] was more than 8 pIC50. For the molecule Hexanoyl-CPPTQFCD-OH (linker 1-7 via tMeBn(DOTA-AET)) [Hex-[Cys(tMeBn(DOTA-AET))-Pro-Pro-Thr-Gln-Phe-Cys]-Asp-OH], the pIC50 Category (Activity) in assay [2] is more than 8 pIC50.

B5: PentylNH-urea-[Cys(3MeBn)-Pro-Pro-Thr-Gln-Phe-Cys]-Asp-NH2 (peptide)
peptide: {PentylNH‑urea}-CPPTQFCD-NH2
modifications: linker 1-7 via mXylylene
SMILES: CCCCCNC(=O)N[C@H]1CSCc2cccc(c2)CSC[C@@H](C(=O)N[C@@H](CC(=O)O)C(N)=O)NC(=O)[C@H](Cc2ccccc2)NC(=O)[C@H](CCC(N)=O)NC(=O)[C@H]([C@@H](C)O)NC(=O)[C@@H]2CCCN2C(=O)[C@@H]2CCCN2C1=O
Take B5: the pIC50 Category (Activity) in assay [2] was more than 8 pIC50.

B6: Hex-[Cys(tMeBn(DOTA-AET))-Pro-Pro-Thr-Gln-Phe-Cys]-asp-NH2 (peptide)
peptide: CPPTQFCD
modifications: N-terminal Hex (hexanoyl); Cys1-Cys7 bridged by tMeBn(DOTA-AET) (thioethers); D-Asp8 (asp); C-terminal amide
As for B6, the pIC50 Category (Activity) in assay [2] was more than 8 pIC50.

B7: Hex-[Cys(3MeBn)-Pro-Pro-Thr-Glu-Phe-Cys]-Asp-NH2 (peptide)
peptide: Hexanoyl-CPPTEFCD-NH2
modifications: linker 1-7 via mXylylene
SMILES: CCCCCC(=O)N[C@H]1CSCc2cccc(c2)CSC[C@@H](C(=O)N[C@@H](CC(=O)O)C(N)=O)NC(=O)[C@H](Cc2ccccc2)NC(=O)[C@H](CCC(=O)O)NC(=O)[C@H]([C@@H](C)O)NC(=O)[C@@H]2CCCN2C(=O)[C@@H]2CCCN2C1=O
Regarding B7, the pIC50 Category (Activity) in assay [2] is more than 8 pIC50. The molecule further had a pIC50 Category (FACS) in assay [1] of more than 8 pIC50. Molecule Hexanoyl-CPPTQFC-NH2 (linker 1-7 via tMeBn(DOTA-AET)) [Hex-[Cys(tMeBn(DOTA-AET))-Pro-Pro-Thr-Gln-Phe-Cys]-NH2] gave a pIC50 Category (FACS) in assay [1] of more than 8 pIC50.

B8: Hex-[Cys(3MeBn)-Pro-Pro-Thr-Gln-Phe-Cys]-Asp-Ttds-Ape-NH-DOTA' (peptide)
peptide: Hexanoyl-CPPTQFCD
modifications: linker 1-7 via mXylylene; not fully specified (C-terminus); printed as Hex-[Cys(3MeBn)-Pro-Pro-Thr-Gln-Phe-Cys]-Asp-Ttds-Ape(DOTA)
B8: in assay [2], the pIC50 Category (Activity) was more than 8 pIC50.

B9: Hex-[Cys(3MeBn)-Pro-Pro-Thr-Gln-Phe-Cys]-Asp-Ape-NH-DOTA' (peptide)
peptide: Hexanoyl-CPPTQFCD
modifications: linker 1-7 via mXylylene; not fully specified (C-terminus); printed as Hex-[Cys(3MeBn)-Pro-Pro-Thr-Gln-Phe-Cys]-Asp-Ape(DOTA)
For B9, in assay [2], the pIC50 Category (Activity) is more than 8 pIC50.

Consider Pentanesulfonyl-CPPTQFCD-NH2 (linker 1-7 via tMeBn(DOTA-PP)) [Pentyl-SO2-[Cys(tMeBn(DOTA-PP))-Pro-Pro-Thr-Gln-Phe-Cys]-Asp-NH2], for which the pIC50 Category (Activity) in assay [2] is more than 8 pIC50.

B10: Hex-[Cys(tMeBn(LuDOTA-AET))-Pro-Pro-Thr-Gln-Phe-Cys]-OH (peptide)
peptide: Hexanoyl-CPPTQFC-OH
modifications: linker 1-7 via tMeBn(LuDOTA-AET); reading uncertain; also: Lu-DOTA complex, printed as Hex-[Cys(tMeBn(LuDOTA-AET))-Pro-Pro-Thr-Gln-Phe-Cys]-OH
In turn, B10 returned a pIC50 Category (FACS) in assay [1] of more than 8 pIC50.

(Values after patent US20220315554A1, “COMPOUNDS COMPRISING A […] LIGAND AND USE THEREOF” (priority 2019, published 2022).)
